Bridge positions count the residues as written; N and C are the ends. Ends that are not written are not given here.
T1: fibrinogen (Homo sapiens, UniProt P02671+P02675+P02679)
T1 sequence (P02671 20-644 isoform P02671-2 limits assumed): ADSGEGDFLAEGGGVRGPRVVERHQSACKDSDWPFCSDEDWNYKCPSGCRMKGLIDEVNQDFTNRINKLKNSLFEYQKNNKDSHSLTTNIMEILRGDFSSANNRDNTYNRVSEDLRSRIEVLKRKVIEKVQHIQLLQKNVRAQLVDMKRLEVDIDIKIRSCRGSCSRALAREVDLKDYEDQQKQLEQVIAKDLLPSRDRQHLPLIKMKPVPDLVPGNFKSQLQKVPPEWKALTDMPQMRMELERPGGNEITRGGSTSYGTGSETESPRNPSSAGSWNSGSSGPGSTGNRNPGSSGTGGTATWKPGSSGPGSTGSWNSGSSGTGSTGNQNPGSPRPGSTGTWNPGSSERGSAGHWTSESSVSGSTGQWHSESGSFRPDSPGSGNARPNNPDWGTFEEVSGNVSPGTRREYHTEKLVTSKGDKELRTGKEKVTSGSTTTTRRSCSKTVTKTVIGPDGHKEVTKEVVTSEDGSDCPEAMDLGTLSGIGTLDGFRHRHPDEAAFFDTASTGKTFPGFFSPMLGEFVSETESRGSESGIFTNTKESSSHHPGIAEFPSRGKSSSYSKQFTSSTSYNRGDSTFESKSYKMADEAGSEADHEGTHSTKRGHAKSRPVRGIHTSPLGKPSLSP
T1 sequence (P02675 31-491): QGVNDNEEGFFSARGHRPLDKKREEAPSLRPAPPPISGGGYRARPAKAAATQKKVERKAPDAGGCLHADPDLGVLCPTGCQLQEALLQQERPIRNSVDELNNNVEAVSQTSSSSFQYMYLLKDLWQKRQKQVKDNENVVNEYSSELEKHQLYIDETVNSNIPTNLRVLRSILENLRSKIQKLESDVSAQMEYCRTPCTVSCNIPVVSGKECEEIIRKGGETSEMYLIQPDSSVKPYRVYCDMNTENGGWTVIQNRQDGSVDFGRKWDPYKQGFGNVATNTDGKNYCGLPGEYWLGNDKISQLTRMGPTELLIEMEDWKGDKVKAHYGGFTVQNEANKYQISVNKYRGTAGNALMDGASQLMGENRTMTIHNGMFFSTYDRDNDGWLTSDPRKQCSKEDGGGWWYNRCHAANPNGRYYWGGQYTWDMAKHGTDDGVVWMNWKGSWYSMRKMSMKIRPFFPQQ
T1 sequence (P02679 27-437 isoform P02679-2 limits assumed): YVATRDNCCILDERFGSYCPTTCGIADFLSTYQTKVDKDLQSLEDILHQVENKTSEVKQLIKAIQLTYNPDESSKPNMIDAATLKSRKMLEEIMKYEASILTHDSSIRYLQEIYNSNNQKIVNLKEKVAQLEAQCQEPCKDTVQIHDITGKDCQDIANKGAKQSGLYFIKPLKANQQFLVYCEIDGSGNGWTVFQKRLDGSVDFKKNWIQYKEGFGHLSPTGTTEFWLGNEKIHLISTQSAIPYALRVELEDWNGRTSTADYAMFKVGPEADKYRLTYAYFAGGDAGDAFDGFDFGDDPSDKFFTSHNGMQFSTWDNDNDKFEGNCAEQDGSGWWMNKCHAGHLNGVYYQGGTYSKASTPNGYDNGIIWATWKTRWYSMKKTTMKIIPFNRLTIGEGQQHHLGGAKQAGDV

T2: dried fibrin (UniProt P02671 36-629; P02675 45-491; P02679 27-437, limits assumed)
T2 construct: Polymerised fibrin made in 96-well plates from fibrinogen and thrombin, dried at 37 C and rehydrated; also called (rehydrated) dried fibrin; fibrin target
T2 sequence (looked up) 1: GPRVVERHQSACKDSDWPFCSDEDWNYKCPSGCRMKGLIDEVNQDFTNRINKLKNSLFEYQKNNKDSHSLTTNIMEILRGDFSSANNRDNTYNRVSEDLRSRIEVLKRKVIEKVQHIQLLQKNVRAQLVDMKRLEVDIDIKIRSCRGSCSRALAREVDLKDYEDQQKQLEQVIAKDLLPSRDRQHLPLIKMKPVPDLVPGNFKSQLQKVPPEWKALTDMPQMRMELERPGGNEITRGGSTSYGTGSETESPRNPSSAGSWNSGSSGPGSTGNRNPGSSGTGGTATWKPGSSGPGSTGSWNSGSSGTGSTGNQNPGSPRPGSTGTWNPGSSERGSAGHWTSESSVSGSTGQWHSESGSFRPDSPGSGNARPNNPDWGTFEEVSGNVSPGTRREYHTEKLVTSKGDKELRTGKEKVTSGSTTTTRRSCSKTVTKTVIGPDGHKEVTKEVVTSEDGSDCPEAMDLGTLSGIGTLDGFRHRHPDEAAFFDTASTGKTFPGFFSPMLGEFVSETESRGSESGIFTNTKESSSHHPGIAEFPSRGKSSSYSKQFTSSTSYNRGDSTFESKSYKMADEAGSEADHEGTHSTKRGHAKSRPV
T2 sequence (looked up) 2: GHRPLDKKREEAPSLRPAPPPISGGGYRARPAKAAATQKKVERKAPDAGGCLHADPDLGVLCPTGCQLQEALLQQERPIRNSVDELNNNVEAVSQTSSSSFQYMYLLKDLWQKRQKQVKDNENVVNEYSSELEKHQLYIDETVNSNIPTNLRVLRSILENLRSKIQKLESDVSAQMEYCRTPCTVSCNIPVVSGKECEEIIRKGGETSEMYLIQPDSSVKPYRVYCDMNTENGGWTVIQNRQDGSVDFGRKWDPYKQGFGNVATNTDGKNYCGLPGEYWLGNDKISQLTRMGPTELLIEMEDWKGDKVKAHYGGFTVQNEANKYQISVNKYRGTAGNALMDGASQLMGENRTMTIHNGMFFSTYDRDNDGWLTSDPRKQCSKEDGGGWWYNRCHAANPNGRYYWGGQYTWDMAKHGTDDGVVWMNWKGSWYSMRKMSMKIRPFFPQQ
T2 sequence (looked up) 3: T1 sequence (P02679 27-437 isoform P02679-2 limits assumed)

T3: fibrinogen (UniProt P02671 20-629; P02675 31-491; P02679 27-437, limits assumed)
T3 sequence (looked up) 1: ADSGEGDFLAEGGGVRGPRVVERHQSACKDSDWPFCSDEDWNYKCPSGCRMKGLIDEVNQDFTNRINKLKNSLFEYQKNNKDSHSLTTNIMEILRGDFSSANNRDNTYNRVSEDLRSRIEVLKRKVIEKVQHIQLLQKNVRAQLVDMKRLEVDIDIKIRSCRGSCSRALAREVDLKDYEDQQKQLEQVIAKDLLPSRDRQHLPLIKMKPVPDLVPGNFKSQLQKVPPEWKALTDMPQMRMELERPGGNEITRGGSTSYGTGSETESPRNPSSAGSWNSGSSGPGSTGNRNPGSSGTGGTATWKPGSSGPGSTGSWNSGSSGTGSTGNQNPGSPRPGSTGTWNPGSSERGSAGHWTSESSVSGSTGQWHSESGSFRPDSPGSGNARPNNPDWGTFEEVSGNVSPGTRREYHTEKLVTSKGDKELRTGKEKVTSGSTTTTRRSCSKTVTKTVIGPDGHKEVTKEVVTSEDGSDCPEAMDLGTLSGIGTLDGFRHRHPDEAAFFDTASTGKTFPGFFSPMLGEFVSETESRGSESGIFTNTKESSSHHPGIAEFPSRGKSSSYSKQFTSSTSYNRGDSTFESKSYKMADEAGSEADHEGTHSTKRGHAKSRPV
T3 sequence (looked up) 2: T1 sequence (P02675 31-491)
T3 sequence (looked up) 3: T1 sequence (P02679 27-437 isoform P02679-2 limits assumed)

T4: fibrin of an in vitro clot formed from human blood plasma (human, UniProt P02671 36-629; P02675 45-491; P02679 27-437)
T4 construct: Plasma of a human donor clotted with CaCl2 in the presence of the peptide; also called in vitro blood clot
T4 sequence (looked up) 1: T2 sequence (looked up) 1
T4 sequence (looked up) 2: T2 sequence (looked up) 2
T4 sequence (looked up) 3: T1 sequence (P02679 27-437 isoform P02679-2 limits assumed)

B1: Gd-DTPA-Pep1 (peptide)
peptide: LPCDYYGTCLD
modifications: disulfide 3-9 (inferred); not fully specified (N-terminus); also: Gd(III)-DTPA chelate, from DTPA-Asp(beta-COOH)-OtBu

What was measured:
DD(E) = molecular target: T5, DD(E) (Homo sapiens, UniProt P02671+P02675+P02679); assay: dissociation constant against fibrin-derived polypeptide DD(E); assay type: binding; conditions: read-out: Kd DD(E)
T5 construct: host or cells: purchased fibrinogen clotted with thrombin, digested with plasmin, then purified by ammonium sulfate cuts and Sephacryl S200

fibrinogen [1] = molecular target: T1, fibrinogen; assay: binding affinity by equilibrium dialysis; conditions: 190 μM vs. 2.7 μM
Description: (§1) A solution of fibrinogen (10 mg/ml) was mixed with the MR labeled peptide of Example 11 designated Gd-DTPA-Pep1, at concentrations of 10, 50 and 100 μM. The fibrinogen/peptide solution was placed on one side of a dialysis membrane in an equilibrium dialysis apparatus. The solution was allowed to equilibrate with an equal volume of buffer on the opposite side of the membrane.

dried fibrin [2] = molecular target: T2, dried fibrin; assay: dried fibrin plate, bound vs free peptide
fibrinogen [3] = molecular target: T3, fibrinogen; assay: equilibrium dialysis, fibrinogen 10 mg/ml, peptide by I.C.P.
Description: as §1

dried fibrin [4] = molecular target: T2, dried fibrin; assay: ratio of Kd for fibrinogen (equilibrium dialysis) to Kd for fibrin
Description: as §1

[5] = molecular target: T4, fibrin of an in vitro clot formed from …; assay: human plasma clotted in the presence of peptide, free peptide by Gd I.C.P., bound vs free fit
Description: Freshly drawn whole blood was obtained from a human donor and centrifuged at 4000×g for 15 minutes to remove the hematocrit. The blood plasma (supernatant) was removed and dispensed into ten 1.5 ml tubes, 500 μL/tube. The MR labeled peptide of Example 11, GdDTPA-Pep1, was added to each tube at increasing concentrations (2, 5, 8, 10, 15, 20, 30, 50, 75, 100 μM) along with PBS buffer (50 mM sodium phosphate, 150 mM NaCl, pH 7.4) to bring the total volume to 550 μL. The sample was equilibrated at 37° C. A small aliquot (50 μL) was removed for quantitating the total peptide added (measured by Gd I.C.P. analysis after dilution into 0.1 M HNO₃). Clotting was initiated by the addition of 5 μL 2 M CaCl₂, and the samples are incubated at 37° C. for 1 hour. The tubes were spun down briefly (5 sec) and the clot was removed with a pipet tip. The remaining supernatant (˜200 μL) was diluted in HNO₃ and the peptide concentration (equal to the concentration of unbound or free peptide) was measured by Gd I.C.P. analysis. The difference between the total and free peptide concentrations yields the concentration of bound peptide.

Molecule | Kd (DD(E)) | specificity for fibrin over fibrinogen (fibrinogen [1]) | Kd (dried fibrin [2]) | Kd (fibrinogen [3]) | specificity for fibrin over fibrinogen (fold) (dried fibrin [4]) | Kd [5]
CC(C)C[C@H](NC(=O)[C@@H]1CSSC[C@H](NC(=O)[C@@H]2CCCN2C(=O)[C@H](CC(C)C)NC(=O)C[C@@H](C(=O)O)N(CCN(CC(=O)O)CC(=O)O)CCN(CC(=O)O)CC(=O)O)C(=O)N[C@@H](CC(=O)O)C(=O)N[C@@H](Cc2ccc(O)cc2)C(=O)N[C@@H](Cc2ccc(O)cc2)C(=O)NCC(=O)N[C@@H]([C@@H](C)O)C(=O)N1)C(=O)N[C@@H](CC(=O)O)C(N)=O [Gd-DTPA-Pep1] | 2.9 µM | roughly 70 fold | – | – | – | –
B1 | – | – | 7.4 µM | 190 µM | ~70 fold | ~20 µM

— patent publication US20050261472A1, “Binding moieties for fibrin” (Dyax Corp., priority 1999, published 2005)
